B1: SeM58-K62D (natural protein, Synechococcus elongatus PCC 7942, UniProt Q03513 1-539, looked up)
chain: MPSPTTVPVATAGRLAEPYIDPAAQVHAIASIIGDVRIAAGVRVAAGVSIRADEGAPFQVGDESILQEGAVIHGLEYGRVLGDDQADYSVWIGQRVAITHKALIHGPAYLGDDCFVGFRSTVFNARVGAGSVIMMHALVQDVEIPPGRYVPSGAIITTQQQADRLPEVRPEDREFARHIIGSPPVIVRSTPAATADFHSTPTPSPLRPSSSEATTVSAYNGQGRLSSEVITQVRSLLNQGYRIGTEHADKRRFRTSSWQPCAPIQSTNERQVLSELENCLSEHEGEYVRLLGIDTNTRSRVFEALIQRPDGSVPESLGSQPVAVASGGGRQSSYASVSGNLSAEVVNKVRNLLAQGYRIGTEHADKRRFRTSSWQSCAPIQSSNERQVLAELENCLSEHEGEYVRLLGIDTASRSRVFEALIQDPQGPVGSAKAAAAPVSSATPSSHSYTSNGSSSSDVAGQVRGLLAQGYRISAEVADKRRFQTSSWQSLPALSGQSEATVLPALESILQEHKGKYVRLIGIDPAARRRVAELLIQKP
notes: CcmM (M58), Synechococcus elongatus PCC 7942, point mutant in the γCAL domain; source: E. coli BL21 (DE3), purified as wild-type M58; not shown: His6-ubiquitin, N-terminal, cleaved
B2: SeM58-R126D (natural protein, Synechococcus elongatus PCC 7942, UniProt Q03513 1-539, looked up)
chain: MPSPTTVPVATAGRLAEPYIDPAAQVHAIASIIGDVRIAAGVRVAAGVSIRADEGAPFQVGKESILQEGAVIHGLEYGRVLGDDQADYSVWIGQRVAITHKALIHGPAYLGDDCFVGFRSTVFNADVGAGSVIMMHALVQDVEIPPGRYVPSGAIITTQQQADRLPEVRPEDREFARHIIGSPPVIVRSTPAATADFHSTPTPSPLRPSSSEATTVSAYNGQGRLSSEVITQVRSLLNQGYRIGTEHADKRRFRTSSWQPCAPIQSTNERQVLSELENCLSEHEGEYVRLLGIDTNTRSRVFEALIQRPDGSVPESLGSQPVAVASGGGRQSSYASVSGNLSAEVVNKVRNLLAQGYRIGTEHADKRRFRTSSWQSCAPIQSSNERQVLAELENCLSEHEGEYVRLLGIDTASRSRVFEALIQDPQGPVGSAKAAAAPVSSATPSSHSYTSNGSSSSDVAGQVRGLLAQGYRISAEVADKRRFQTSSWQSLPALSGQSEATVLPALESILQEHKGKYVRLIGIDPAARRRVAELLIQKP
notes: as for B1
B3: SeM58-E246K (natural protein, Synechococcus elongatus PCC 7942, UniProt Q03513 1-539, looked up)
chain: MPSPTTVPVATAGRLAEPYIDPAAQVHAIASIIGDVRIAAGVRVAAGVSIRADEGAPFQVGKESILQEGAVIHGLEYGRVLGDDQADYSVWIGQRVAITHKALIHGPAYLGDDCFVGFRSTVFNARVGAGSVIMMHALVQDVEIPPGRYVPSGAIITTQQQADRLPEVRPEDREFARHIIGSPPVIVRSTPAATADFHSTPTPSPLRPSSSEATTVSAYNGQGRLSSEVITQVRSLLNQGYRIGTKHADKRRFRTSSWQPCAPIQSTNERQVLSELENCLSEHEGEYVRLLGIDTNTRSRVFEALIQRPDGSVPESLGSQPVAVASGGGRQSSYASVSGNLSAEVVNKVRNLLAQGYRIGTEHADKRRFRTSSWQSCAPIQSSNERQVLAELENCLSEHEGEYVRLLGIDTASRSRVFEALIQDPQGPVGSAKAAAAPVSSATPSSHSYTSNGSSSSDVAGQVRGLLAQGYRISAEVADKRRFQTSSWQSLPALSGQSEATVLPALESILQEHKGKYVRLIGIDPAARRRVAELLIQKP
notes: CcmM (M58), Synechococcus elongatus PCC 7942, point mutant in SSUL1; source: E. coli BL21 (DE3), purified as wild-type M58; not shown: His6-ubiquitin, N-terminal, cleaved
B4: SeM58-E286K (natural protein, Synechococcus elongatus PCC 7942, UniProt Q03513 1-539, looked up)
chain: MPSPTTVPVATAGRLAEPYIDPAAQVHAIASIIGDVRIAAGVRVAAGVSIRADEGAPFQVGKESILQEGAVIHGLEYGRVLGDDQADYSVWIGQRVAITHKALIHGPAYLGDDCFVGFRSTVFNARVGAGSVIMMHALVQDVEIPPGRYVPSGAIITTQQQADRLPEVRPEDREFARHIIGSPPVIVRSTPAATADFHSTPTPSPLRPSSSEATTVSAYNGQGRLSSEVITQVRSLLNQGYRIGTEHADKRRFRTSSWQPCAPIQSTNERQVLSELENCLSEHEGKYVRLLGIDTNTRSRVFEALIQRPDGSVPESLGSQPVAVASGGGRQSSYASVSGNLSAEVVNKVRNLLAQGYRIGTEHADKRRFRTSSWQSCAPIQSSNERQVLAELENCLSEHEGEYVRLLGIDTASRSRVFEALIQDPQGPVGSAKAAAAPVSSATPSSHSYTSNGSSSSDVAGQVRGLLAQGYRISAEVADKRRFQTSSWQSLPALSGQSEATVLPALESILQEHKGKYVRLIGIDPAARRRVAELLIQKP
notes: as for B3
B5: SeM58-E76K (natural protein, Synechococcus elongatus PCC 7942, UniProt Q03513 1-539, looked up)
chain: MPSPTTVPVATAGRLAEPYIDPAAQVHAIASIIGDVRIAAGVRVAAGVSIRADEGAPFQVGKESILQEGAVIHGLKYGRVLGDDQADYSVWIGQRVAITHKALIHGPAYLGDDCFVGFRSTVFNARVGAGSVIMMHALVQDVEIPPGRYVPSGAIITTQQQADRLPEVRPEDREFARHIIGSPPVIVRSTPAATADFHSTPTPSPLRPSSSEATTVSAYNGQGRLSSEVITQVRSLLNQGYRIGTEHADKRRFRTSSWQPCAPIQSTNERQVLSELENCLSEHEGEYVRLLGIDTNTRSRVFEALIQRPDGSVPESLGSQPVAVASGGGRQSSYASVSGNLSAEVVNKVRNLLAQGYRIGTEHADKRRFRTSSWQSCAPIQSSNERQVLAELENCLSEHEGEYVRLLGIDTASRSRVFEALIQDPQGPVGSAKAAAAPVSSATPSSHSYTSNGSSSSDVAGQVRGLLAQGYRISAEVADKRRFQTSSWQSLPALSGQSEATVLPALESILQEHKGKYVRLIGIDPAARRRVAELLIQKP
notes: as for B1
B6: SeM58-R79D (natural protein, Synechococcus elongatus PCC 7942, UniProt Q03513 1-539, looked up)
chain: MPSPTTVPVATAGRLAEPYIDPAAQVHAIASIIGDVRIAAGVRVAAGVSIRADEGAPFQVGKESILQEGAVIHGLEYGDVLGDDQADYSVWIGQRVAITHKALIHGPAYLGDDCFVGFRSTVFNARVGAGSVIMMHALVQDVEIPPGRYVPSGAIITTQQQADRLPEVRPEDREFARHIIGSPPVIVRSTPAATADFHSTPTPSPLRPSSSEATTVSAYNGQGRLSSEVITQVRSLLNQGYRIGTEHADKRRFRTSSWQPCAPIQSTNERQVLSELENCLSEHEGEYVRLLGIDTNTRSRVFEALIQRPDGSVPESLGSQPVAVASGGGRQSSYASVSGNLSAEVVNKVRNLLAQGYRIGTEHADKRRFRTSSWQSCAPIQSSNERQVLAELENCLSEHEGEYVRLLGIDTASRSRVFEALIQDPQGPVGSAKAAAAPVSSATPSSHSYTSNGSSSSDVAGQVRGLLAQGYRISAEVADKRRFQTSSWQSLPALSGQSEATVLPALESILQEHKGKYVRLIGIDPAARRRVAELLIQKP
notes: as for B1
B7: SeM58-R95D (natural protein, Synechococcus elongatus PCC 7942, UniProt Q03513 1-539, looked up)
chain: MPSPTTVPVATAGRLAEPYIDPAAQVHAIASIIGDVRIAAGVRVAAGVSIRADEGAPFQVGKESILQEGAVIHGLEYGRVLGDDQADYSVWIGQDVAITHKALIHGPAYLGDDCFVGFRSTVFNARVGAGSVIMMHALVQDVEIPPGRYVPSGAIITTQQQADRLPEVRPEDREFARHIIGSPPVIVRSTPAATADFHSTPTPSPLRPSSSEATTVSAYNGQGRLSSEVITQVRSLLNQGYRIGTEHADKRRFRTSSWQPCAPIQSTNERQVLSELENCLSEHEGEYVRLLGIDTNTRSRVFEALIQRPDGSVPESLGSQPVAVASGGGRQSSYASVSGNLSAEVVNKVRNLLAQGYRIGTEHADKRRFRTSSWQSCAPIQSSNERQVLAELENCLSEHEGEYVRLLGIDTASRSRVFEALIQDPQGPVGSAKAAAAPVSSATPSSHSYTSNGSSSSDVAGQVRGLLAQGYRISAEVADKRRFQTSSWQSLPALSGQSEATVLPALESILQEHKGKYVRLIGIDPAARRRVAELLIQKP
notes: as for B1
B8: SeM58-D249K (natural protein, Synechococcus elongatus PCC 7942, UniProt Q03513 1-539, looked up)
chain: MPSPTTVPVATAGRLAEPYIDPAAQVHAIASIIGDVRIAAGVRVAAGVSIRADEGAPFQVGKESILQEGAVIHGLEYGRVLGDDQADYSVWIGQRVAITHKALIHGPAYLGDDCFVGFRSTVFNARVGAGSVIMMHALVQDVEIPPGRYVPSGAIITTQQQADRLPEVRPEDREFARHIIGSPPVIVRSTPAATADFHSTPTPSPLRPSSSEATTVSAYNGQGRLSSEVITQVRSLLNQGYRIGTEHAKKRRFRTSSWQPCAPIQSTNERQVLSELENCLSEHEGEYVRLLGIDTNTRSRVFEALIQRPDGSVPESLGSQPVAVASGGGRQSSYASVSGNLSAEVVNKVRNLLAQGYRIGTEHADKRRFRTSSWQSCAPIQSSNERQVLAELENCLSEHEGEYVRLLGIDTASRSRVFEALIQDPQGPVGSAKAAAAPVSSATPSSHSYTSNGSSSSDVAGQVRGLLAQGYRISAEVADKRRFQTSSWQSLPALSGQSEATVLPALESILQEHKGKYVRLIGIDPAARRRVAELLIQKP
notes: as for B3
B9: SeM58-D294K (natural protein, Synechococcus elongatus PCC 7942, UniProt Q03513 1-539, looked up)
chain: MPSPTTVPVATAGRLAEPYIDPAAQVHAIASIIGDVRIAAGVRVAAGVSIRADEGAPFQVGKESILQEGAVIHGLEYGRVLGDDQADYSVWIGQRVAITHKALIHGPAYLGDDCFVGFRSTVFNARVGAGSVIMMHALVQDVEIPPGRYVPSGAIITTQQQADRLPEVRPEDREFARHIIGSPPVIVRSTPAATADFHSTPTPSPLRPSSSEATTVSAYNGQGRLSSEVITQVRSLLNQGYRIGTEHADKRRFRTSSWQPCAPIQSTNERQVLSELENCLSEHEGEYVRLLGIKTNTRSRVFEALIQRPDGSVPESLGSQPVAVASGGGRQSSYASVSGNLSAEVVNKVRNLLAQGYRIGTEHADKRRFRTSSWQSCAPIQSSNERQVLAELENCLSEHEGEYVRLLGIDTASRSRVFEALIQDPQGPVGSAKAAAAPVSSATPSSHSYTSNGSSSSDVAGQVRGLLAQGYRISAEVADKRRFQTSSWQSLPALSGQSEATVLPALESILQEHKGKYVRLIGIDPAARRRVAELLIQKP
notes: as for B3
B10: SeM58-D112K (natural protein, Synechococcus elongatus PCC 7942, UniProt Q03513 1-539, looked up)
chain: MPSPTTVPVATAGRLAEPYIDPAAQVHAIASIIGDVRIAAGVRVAAGVSIRADEGAPFQVGKESILQEGAVIHGLEYGRVLGDDQADYSVWIGQRVAITHKALIHGPAYLGKDCFVGFRSTVFNARVGAGSVIMMHALVQDVEIPPGRYVPSGAIITTQQQADRLPEVRPEDREFARHIIGSPPVIVRSTPAATADFHSTPTPSPLRPSSSEATTVSAYNGQGRLSSEVITQVRSLLNQGYRIGTEHADKRRFRTSSWQPCAPIQSTNERQVLSELENCLSEHEGEYVRLLGIDTNTRSRVFEALIQRPDGSVPESLGSQPVAVASGGGRQSSYASVSGNLSAEVVNKVRNLLAQGYRIGTEHADKRRFRTSSWQSCAPIQSSNERQVLAELENCLSEHEGEYVRLLGIDTASRSRVFEALIQDPQGPVGSAKAAAAPVSSATPSSHSYTSNGSSSSDVAGQVRGLLAQGYRISAEVADKRRFQTSSWQSLPALSGQSEATVLPALESILQEHKGKYVRLIGIDPAARRRVAELLIQKP
notes: as for B1

Target: the molecule itself
Assay: SEC-MALS; 2 mg/ml protein; 50 mM Tris-HCl pH 8.0/150 mM KCl or 50 mM Tris-HCl pH 8.0/500 mM KCl/5 mM DTT; 25 °C; oligomeric state in solution

Stoichiometry N, 3:
B1
B2
B3
B4
B5
B6
B7
B8
B9
B10

Source: PMC8580825, “Scaffolding protein CcmM directs multiprotein phase separation in β-carboxysome biogenesis” (Nature Structural & Molecular Biology, 2021)
